Reference: publication PMC7041945, “Misfolded proteins bind and activate death receptor 5 to trigger apoptosis during unresolved endoplasmic reticulum stress” (eLife, 2020)

Experiments:
HCT116 cells [1] = assay: Trypan blue staining, automated cell counting; assay type: cell-based, Homo sapiens; set-up: key to Trypan blue- / Trypan blue+ / avg Trypan blue- / avg Trypan blue+: % of cells (Trypan blue positive or negative); conditions: for Dead concentration / Live concentration / Total Concentration / Viability (%): hct mpz, BF
Experimental: Cells seeded in a 6-well plate were transfected with the specified plasmid for 24 hr and harvested via trypsinization in complete media and ultimately resuspended in 400 μl of media to obtain a concentration of 1.0–3.0 × 10^6 cells/ml. The cell suspension was then mixed 1:1 with 0.4% Trypan blue (Sigma-Aldrich) and incubated at 37°C for 30 min. The percentage of cells staining positive for was then quantified using the Countess II FL Automated Cell Counter (ThermoFisher, catalog # AMQAF1000) default brightfield settings with disposable slides.

HCT116 cells [2] = assay: Annexin V (and SytoxBlue) flow cytometry for apoptosis; assay type: cell-based, Homo sapiens; conditions: for Mean ± SEM (Prism T-tests, Annexin V for MPZ-GFP): N=3, values agree with avg Annexin V+; for avg Annexin V+ / avg Annexin V-: mean of 3 replicates; for AnnexinV+ (Statistic, single cells) / AnnexinV- (Statistic, single cells) / GFP+ (Statistic, single cells) / GFP- (Statistic, single cells) / Q1: APC-A- , DAPI-A+ (Statistic, single cells) / Q2: APC-A+ , DAPI-A+ (Statistic, single cells) / Q3: APC-A+ , DAPI-A- (Statistic, single cells) / Q4: APC-A- , DAPI-A- (Statistic, single cells) / SytoxBlue+ (Statistic, single cells) / SytoxBlue- (Statistic, single cells) / dead cells (Statistic) / FITC-A+ (Statistic, dead cells) / FITC-A- (Statistic, dead cells): 2018-01-17 MPZ; for AnnexinV+ (Statistic, single cells): gate all cells/Single Cells/AnnexinV+; for AnnexinV- (Statistic, single cells): gate all cells/Single Cells/AnnexinV-; for GFP+ (Statistic, single cells): gate all cells/Single Cells/GFP+; for GFP- (Statistic, single cells): gate all cells/Single Cells/GFP-; for Q1: APC-A- , DAPI-A+ (Statistic, single cells): gate all cells/Single Cells/Q1; for Q2: APC-A+ , DAPI-A+ (Statistic, single cells): gate all cells/Single Cells/Q2; for Q3: APC-A+ , DAPI-A- (Statistic, single cells): gate all cells/Single Cells/Q3; for Q4: APC-A- , DAPI-A- (Statistic, single cells): gate all cells/Single Cells/Q4; for SytoxBlue+ (Statistic, single cells): gate all cells/Single Cells/SytoxBlue+; for SytoxBlue- (Statistic, single cells): gate all cells/Single Cells/SytoxBlue-; for dead cells (Statistic): gate dead cells of all events; for FITC-A+ (Statistic, dead cells): gate dead cells/Single Cells/FITC-A+; for FITC-A- (Statistic, dead cells): gate dead cells/Single Cells/FITC-A-
Experimental: Cells seeded in a 6-well plate were transfected with the specified plasmid for 24 hr and harvested via trypsinization in complete media to allow a 30 min recovery at 37°C. The samples were then centrifuged at 500xg for 5 min and resuspended In 150 μl of a 1:20 dilution of Annexin V-AlexaFluor 647 conjugate (Thermo Scientific #A23204). Samples were transferred to a 96-well U-bottom plate and incubated in the dark for 15 min at RT. The distribution of apoptotic cells was determined by flow cytometry on a BD LSR II.

[3] = biological replicate 1 (05.22.2019)
[4] = biological replicate 2 (05.24.2019)
[5] = biological replicate 3 (05.24.2019)
[6] = siRNA DR5 (siDR5), 2017-01-17 Replicate
[7] = siRNA DR5 (siDR5), 2018-06-21 Rep 1
[8] = siRNA DR5 (siDR5), 2018-06-21 Rep 2
[9] = siRNA scrambled, 2017-01-17 Replicate
[10] = siRNA scrambled, Tg sample with empty construct
[11] = siRNA scrambled, 2018-06-21 Rep 1
[12] = siRNA scrambled, 2018-06-21 Rep 2

B1: MPZ-GFP: myelin protein zero with a C-terminal monomeric EGFP, expressed from plasmid (protein)
chain: IVVYTDREVHGAVGSRVTLHCSFWSSEWVSDDISFTWRYQPEGGRDAISIFHYAKGQPYIDEVGTFKERIQWVGDPRWKDGSIVIHNLDYSDNGTFTCDVKNPPDIVGKTSQVTLYVFEKVPTRYGVVLGAVIGGVLGVVLLLLLLFYVVRYCWLRRQAALQRRLSAMEKGKLHKPGKDASKRGRQTPVLYAMLDHSRSTKAVSEKKAKGLGESRKDKK
modifications: left off: monomeric EGFP, C-terminal, kept
notes: myelin protein zero with a C-terminal monomeric EGFP, expressed from plasmid
Trypan blue+ (HCT116 cells [1]; MPZ-GFP, Rep 1): 47.8261
Trypan blue- (HCT116 cells [1]; MPZ-GFP, Rep 1): 52.1739
Trypan blue+ (HCT116 cells [1]; MPZ-GFP, Rep 2): 36.3817
Trypan blue- (HCT116 cells [1]; MPZ-GFP, Rep 2): 63.6183
Trypan blue+ (HCT116 cells [1]; MPZ-GFP, Rep 3): 29.5129
Trypan blue- (HCT116 cells [1]; MPZ-GFP, Rep 3): 70.4871
avg Trypan blue+ (HCT116 cells [1]; MPZ-GFP, avg of Rep 1-3): 37.9069
avg Trypan blue- (HCT116 cells [1]; MPZ-GFP, avg of Rep 1-3): 62.0931
Dead concentration (HCT116 cells [1]; [3]): 3.87E+05
Live concentration (HCT116 cells [1]; [3]): 4.22E+05
Total Concentration (HCT116 cells [1]; [3]): 8.09E+05
Viability (%) (HCT116 cells [1]; [3]): 52.1739%
Dead concentration (HCT116 cells [1]; [4]): 1.07E+06
Live concentration (HCT116 cells [1]; [4]): 1.88E+06
Total Concentration (HCT116 cells [1]; [4]): 2.95E+06
Viability (%) (HCT116 cells [1]; [4]): 63.6183%
Dead concentration (HCT116 cells [1]; [5]): 1.21E+06
Live concentration (HCT116 cells [1]; [5]): 2.89E+06
Total Concentration (HCT116 cells [1]; [5]): 4.09E+06
Viability (%) (HCT116 cells [1]; [5]): 70.4871%
Difference between means (HCT116 cells [2]; MPZ-GFP siDR5 vs. MPZ-GFP): -18 ± 5.2
Mean ± SEM (Fig 1S2D) (HCT116 cells [2]; MPZ-GFP, mean ± SEM, n=3): 37.91 ± 5.341, n=3
Mean ± SEM (Prism T-tests, Annexin V for MPZ-GFP) (HCT116 cells [2]; no siDR5, mean ± SEM): 33 ± 4.7 N=3
Mean ± SEM (Prism T-tests, Annexin V for MPZ-GFP) (HCT116 cells [2]; siDR5, mean ± SEM): 15 ± 2.3 N=3
Annexin V+ (HCT116 cells [2]; [6]): 10.4
Annexin V- (HCT116 cells [2]; [6]): 89.6
Annexin V+ (HCT116 cells [2]; [7]): 17
Annexin V- (HCT116 cells [2]; [7]): 83
Annexin V+ (HCT116 cells [2]; [8]): 17.8
Annexin V- (HCT116 cells [2]; [8]): 82.2
avg Annexin V+ (HCT116 cells [2]; siRNA DR5 (siDR5)): 15.0667
avg Annexin V- (HCT116 cells [2]; siRNA DR5 (siDR5)): 84.9333
AnnexinV+ (Statistic, single cells) (HCT116 cells [2]; siRNA DR5): 10.4
AnnexinV- (Statistic, single cells) (HCT116 cells [2]; siRNA DR5): 89.6
GFP+ (Statistic, single cells) (HCT116 cells [2]; siRNA DR5): 40.8
GFP- (Statistic, single cells) (HCT116 cells [2]; siRNA DR5): 59.2
Q1: APC-A- , DAPI-A+ (Statistic, single cells) (HCT116 cells [2]; siRNA DR5): 1.26
Q2: APC-A+ , DAPI-A+ (Statistic, single cells) (HCT116 cells [2]; siRNA DR5): 8.07
Q3: APC-A+ , DAPI-A- (Statistic, single cells) (HCT116 cells [2]; siRNA DR5): 1.36
Q4: APC-A- , DAPI-A- (Statistic, single cells) (HCT116 cells [2]; siRNA DR5): 89.3
SytoxBlue+ (Statistic, single cells) (HCT116 cells [2]; siRNA DR5): 9.1
SytoxBlue- (Statistic, single cells) (HCT116 cells [2]; siRNA DR5): 90.9
dead cells (Statistic) (HCT116 cells [2]; siRNA DR5): 6.03
FITC-A+ (Statistic, dead cells) (HCT116 cells [2]; siRNA DR5): 43.4
FITC-A- (Statistic, dead cells) (HCT116 cells [2]; siRNA DR5): 56.6
AnnexinV+ (Statistic, single cells) (HCT116 cells [2]; siRNA TRAIL): 20.8
AnnexinV- (Statistic, single cells) (HCT116 cells [2]; siRNA TRAIL): 79.2
GFP+ (Statistic, single cells) (HCT116 cells [2]; siRNA TRAIL): 47.9
GFP- (Statistic, single cells) (HCT116 cells [2]; siRNA TRAIL): 52.1
Q1: APC-A- , DAPI-A+ (Statistic, single cells) (HCT116 cells [2]; siRNA TRAIL): 2.56
Q2: APC-A+ , DAPI-A+ (Statistic, single cells) (HCT116 cells [2]; siRNA TRAIL): 16.8
Q3: APC-A+ , DAPI-A- (Statistic, single cells) (HCT116 cells [2]; siRNA TRAIL): 2.29
Q4: APC-A- , DAPI-A- (Statistic, single cells) (HCT116 cells [2]; siRNA TRAIL): 78.3
SytoxBlue+ (Statistic, single cells) (HCT116 cells [2]; siRNA TRAIL): 18.9
SytoxBlue- (Statistic, single cells) (HCT116 cells [2]; siRNA TRAIL): 81.1
dead cells (Statistic) (HCT116 cells [2]; siRNA TRAIL): 10.4
FITC-A+ (Statistic, dead cells) (HCT116 cells [2]; siRNA TRAIL): 43.4
FITC-A- (Statistic, dead cells) (HCT116 cells [2]; siRNA TRAIL): 56.6
Annexin V+ (HCT116 cells [2]; [9]): 41.8
Annexin V- (HCT116 cells [2]; [9]): 58.2
AnnexinV+ (Statistic, single cells) (HCT116 cells [2]; [10]): 41.8
AnnexinV- (Statistic, single cells) (HCT116 cells [2]; [10]): 58.2
GFP+ (Statistic, single cells) (HCT116 cells [2]; [10]): 60.1
GFP- (Statistic, single cells) (HCT116 cells [2]; [10]): 39.9
Q1: APC-A- , DAPI-A+ (Statistic, single cells) (HCT116 cells [2]; [10]): 10.7
Q2: APC-A+ , DAPI-A+ (Statistic, single cells) (HCT116 cells [2]; [10]): 31.7
Q3: APC-A+ , DAPI-A- (Statistic, single cells) (HCT116 cells [2]; [10]): 8.04
Q4: APC-A- , DAPI-A- (Statistic, single cells) (HCT116 cells [2]; [10]): 49.5
SytoxBlue+ (Statistic, single cells) (HCT116 cells [2]; [10]): 40
SytoxBlue- (Statistic, single cells) (HCT116 cells [2]; [10]): 60
dead cells (Statistic) (HCT116 cells [2]; [10]): 22
FITC-A+ (Statistic, dead cells) (HCT116 cells [2]; [10]): 37.6
FITC-A- (Statistic, dead cells) (HCT116 cells [2]; [10]): 62.4
Annexin V+ (HCT116 cells [2]; [11]): 25.8
Annexin V- (HCT116 cells [2]; [11]): 74.2
Annexin V+ (HCT116 cells [2]; [12]): 32
Annexin V- (HCT116 cells [2]; [12]): 68
avg Annexin V+ (HCT116 cells [2]; siRNA scrambled): 33.2
avg Annexin V- (HCT116 cells [2]; siRNA scrambled): 66.8
